Measurements published in paper PMC9641244.
Changes are numbered by the printed parent chain.

How the values were obtained:
DMC1 E162A = biological target: T1, DMC1 E162A (Homo sapiens, UniProt Q14565 1-340, E162A); experiment: EMSA
T1 sequence: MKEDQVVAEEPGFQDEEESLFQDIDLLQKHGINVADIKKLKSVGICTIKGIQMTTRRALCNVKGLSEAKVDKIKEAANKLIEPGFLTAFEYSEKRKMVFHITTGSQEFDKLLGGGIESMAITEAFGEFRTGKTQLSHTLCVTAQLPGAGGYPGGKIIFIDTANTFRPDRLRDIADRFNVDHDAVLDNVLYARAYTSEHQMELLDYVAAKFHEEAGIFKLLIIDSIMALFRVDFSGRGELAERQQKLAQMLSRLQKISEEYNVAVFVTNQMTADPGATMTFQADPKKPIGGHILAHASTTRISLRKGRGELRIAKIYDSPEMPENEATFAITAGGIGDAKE

DMC1 D317K [1] = biological target: T2, DMC1 D317K (Homo sapiens, UniProt Q14565 1-340, D317K); experiment: EMSA
T2 sequence: T1 sequence with A162E, D317K

DMC1 D317A [2] = biological target: T3, DMC1 D317A (Homo sapiens, UniProt Q14565 1-340, D317A); experiment: EMSA
T3 sequence: T1 sequence with A162E, D317A

Dmc1 E157K = biological target: T4, Dmc1 E157K (Saccharomyces cerevisiae, UniProt P25453 1-334, E157K); experiment: EMSA
T4 sequence: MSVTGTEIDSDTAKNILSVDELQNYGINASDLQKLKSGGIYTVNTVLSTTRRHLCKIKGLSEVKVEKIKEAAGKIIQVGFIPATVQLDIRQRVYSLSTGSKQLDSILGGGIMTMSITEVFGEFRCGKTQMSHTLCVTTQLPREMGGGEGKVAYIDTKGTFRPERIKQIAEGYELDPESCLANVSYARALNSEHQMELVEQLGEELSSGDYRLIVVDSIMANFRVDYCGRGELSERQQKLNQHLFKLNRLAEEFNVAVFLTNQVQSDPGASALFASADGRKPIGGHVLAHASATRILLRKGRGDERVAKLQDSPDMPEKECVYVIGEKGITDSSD

Dmc1 D311K = biological target: T5, Dmc1 D311K (Saccharomyces cerevisiae, UniProt P25453 1-334, D311K); experiment: EMSA
T5 sequence: T4 sequence with K157E, D311K

DMC1 D317K [3] = biological target: T2, DMC1 D317K; experiment: BLI
DMC1 WT = biological target: T6, DMC1 WT (Homo sapiens, UniProt Q14565 1-340); experiment: BLI
T6 sequence: T1 sequence with A162E

DMC1 D317A [4] = biological target: T3, DMC1 D317A; experiment: BLI
DMC1 E162K = biological target: T7, DMC1 E162K (Homo sapiens, UniProt Q14565 1-340, E162K); experiment: BLI
T7 sequence: T1 sequence with A162K

Measured: binding result

B1: pR231 90-mer (ssDNA)
DNA: AAATCAATCTAAAGTATATATGAGTAAACTTGGTCTGACAGTTACCAATGCTTAATCAGTGAGGCACCTATCTCAGCGATCTGTCTATTT
binds: DMC1 E162A | DMC1 D317K [1] | DMC1 D317A [2] | Dmc1 E157K | Dmc1 D311K

B2: pR231 90-mer biotinylated (ssDNA)
DNA: B1 DNA
binds: DMC1 D317K [3] | DMC1 WT | DMC1 D317A [4] | DMC1 E162K
